Test results published in patent publication US20260234246A1 (CAEDO ONCOLOGY, published 2026).
Where a chain is given by its changes, count along the chain named. Each block holds one binder with its values, some of them ahead of it.

Tests used:
[1] = molecular target: T1, human CD47 on the surface of cells (human cancer cell lines and human red blood cells) (human, UniProt Q08722 19-323); experiment: flow cytometry, FITC-conjugated antibody on Reh cells
T1 construct: Native CD47 of human cell lines (Jurkat, Reh, CCRF-CEM and others) and of RBCs from healthy donors; also called cell-surface CD47
Experimental: (§1) PBS-washed cancer cell lines or RBCs were pelleted and washed with washing buffer (3% (w/v) BSA, 1% (w/v) sodium azide in PBS) and incubated with Human BD Fc Block for 10 minutes before being plated into a round-bottom 96 well plate (2.5×10⁵ cells per well). Antibodies were conjugated with FITC using the FITC conjugation kit from Abcam. […] All samples were prepared in duplicates. Cells were washed three times and resuspended in cold washing buffer. Cells were kept on ice until analyses by flow cytometry. Excitation wavelength FITC: 488 nm, detection: 530/30 nm.
(§2) 4-parameter curve fitting was performed using GraphPad Prism

[2] = molecular target: T1, human CD47 on the surface of cells …; experiment: flow cytometry, FITC-conjugated antibody on human RBCs
Experimental: as §1, §2

[3] = molecular target: T1, human CD47 on the surface of cells …; experiment: flow cytometry, FITC-conjugated antibody on Jurkat cells
Experimental: as §1, §2

[4] = molecular target: T1, human CD47 on the surface of cells …; experiment: flow cytometry, FITC-conjugated antibody on CCRF-CEM cells
Experimental: as §1, §2

[5] = molecular target: T2, recombinant CD47 (recCD47), SinoBiological 12283-H27H-B, biotinylated (human, UniProt Q08722 19-139, biotinylated (AVI-tag)); experiment: SPR Biacore S200, single-cycle (top 1 uM), recCD47 on SA chip 1330 RU, antibody as analyte, 1:1 model
T2 construct: Bought protein, 17 kDa; At 17 kDa it can only be a part of it; also called recombinant biotinylated CD47; not shown: C-terminal His- and AVI-tag

[6] = molecular target: T2, recombinant CD47 (recCD47), …; experiment: SPR Biacore S200, single-cycle (top 80 nM), recCD47 on SA chip 1330 RU, antibody as analyte, 1:1 model
[7] = molecular target: T2, recombinant CD47 (recCD47), …; experiment: SPR Biacore S200, multi-cycle (top 50 nM), run 1, recCD47 on SA chip 1330 RU, antibody as analyte, 1:1 model
[8] = molecular target: T2, recombinant CD47 (recCD47), …; experiment: SPR Biacore S200, multi-cycle (top 50 nM), run 2, recCD47 on SA chip 1330 RU, antibody as analyte, 1:1 model
[9] = molecular target: T2, recombinant CD47 (recCD47), …; experiment: SPR Biacore S200, multi-cycle (top 50 nM), recCD47 on SA chip 1330 RU, antibody as analyte, 1:1 model
[10] = molecular target: T2, recombinant CD47 (recCD47), …; experiment: SPR Biacore S200, single-cycle, recCD47 on SA chip 700 RU, antibody as analyte, 25 C, 1:1 model
[11] = molecular target: T2, recombinant CD47 (recCD47), …; experiment: SPR Biacore S200, single-cycle, recCD47 on SA chip 100 RU, fragment as analyte, 25 C, 1:1 model
[12] = molecular target: T2, recombinant CD47 (recCD47), …; experiment: SPR Biacore S200, single-cycle, recCD47 on SA chip 100 RU, antibody as analyte, 25 C, 1:1 model;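 further: antibodies were injected over the captured CD47 at a series of concentrations, and KD was derived as the dissociation rate constant divided by the association rate constant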
Experimental: The binding affinity of the huCO-mAbs to CD47 was determined via surface plasmon resonance (SPR) on a Biacore S200 system. Recombinant biotinylated CD47 was immobilized on an SA streptavidin chip to a level of 100 RU (in 10 mM NaAc pH5.0). The huCO-mAbs reacted with recombinant CD47 at gradient concentrations.
A 1:1 binding model was used to fit the data. […] The affinity constant KD is calculated as kd/kₐ.

[13] = molecular target: T1, human CD47 on the surface of cells …; experiment: flow cytometry on Jurkat cells, goat anti-human FITC, MFI against log µg/ml
Experimental: PBS-washed cancer cell lines or RBCs were pelleted and washed with washing buffer (3% (w/v) BSA, 1% (w/v) sodium azide in DPBS) and incubated with Human BD Fc Block for 10 minutes before being plated into a round-bottom 96 well plate (2.5×10⁵ cells per well). […] All samples were prepared in duplicates. The cells were washed twice in washing buffer, followed by 30 minutes incubation with Goat anti-human FITC staining buffer (Goat anti-human FITC diluted 1:200 in washing buffer) on ice, protected from light with slight agitation. The cells were analyzed by flow cytometry after three washes in washing buffer. Excitation wavelength FITC: 488 nm, detection: 530/30 nm.

T2 sequence (Q08722 19-139 limits assumed): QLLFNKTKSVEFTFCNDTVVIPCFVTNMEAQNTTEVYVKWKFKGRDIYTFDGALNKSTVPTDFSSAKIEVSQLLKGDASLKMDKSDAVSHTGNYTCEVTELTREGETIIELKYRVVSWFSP
T1 sequence (Q08722 19-323 limits assumed): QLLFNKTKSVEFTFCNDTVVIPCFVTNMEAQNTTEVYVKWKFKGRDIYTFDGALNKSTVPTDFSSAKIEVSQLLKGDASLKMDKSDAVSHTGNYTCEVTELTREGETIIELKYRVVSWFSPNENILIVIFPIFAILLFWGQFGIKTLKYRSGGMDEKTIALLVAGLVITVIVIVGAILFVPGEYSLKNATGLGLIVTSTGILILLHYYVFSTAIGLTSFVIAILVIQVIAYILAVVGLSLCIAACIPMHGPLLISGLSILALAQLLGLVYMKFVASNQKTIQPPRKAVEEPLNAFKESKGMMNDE

EC50 [1]: 0.34 mg/L
EC50 [2]: 2.42 mg/L
EC50 [3]: 0.0303 mg/L
EC50 [4]: 0.000285 mg/L
Kd [5]: 1 nM
koff [5]: 0.0006 s⁻¹
kon [5]: 500000 M⁻¹ s⁻¹
Kd [6]: 1 nM
koff [6]: 0.0008 s⁻¹
kon [6]: 800000 M⁻¹ s⁻¹
Kd [7]: 1 nM
koff [7]: 0.001 s⁻¹
kon [7]: 1.5e+06 M⁻¹ s⁻¹
Kd [8]: 1 nM
koff [8]: 0.002 s⁻¹
kon [8]: 1.8e+06 M⁻¹ s⁻¹
B1: AO-A IgG1 (AO-176 candidate A) (antibody, V domains shown)
VH: QVQLVQSGAEVKKPGASVKVSCKASGYTFTNYWIHWVRQAPGQGLEWMGYTDPRTDYTEYNQKFKDRVTMTRDTSTSTVYMELSSLRSEDTAVYYCARGGRVGLGYWGQGTLVTVSS
VL: DIVMTQSPDSLAVSLGERATINCRSSQNIVQSNGNTYLEWYQQKPGQPPKLLIYKVFHRFSGVPDRFSGSGSGTDFTLTISSLQAEDVAVYYCFQGSHVPYTFGQGTKLEIKR
notes: Comparator from WO2020/198370; also called AO-A.1; AO-176 A

EC50 [1]: 3.1 mg/L
EC50 [2]: 3.67 mg/L
EC50 [3]: 0.0748 mg/L
EC50 [4]: 0.000559 mg/L
Kd [9]: 3 nM
koff [9]: 0.004 s⁻¹
kon [9]: 1.5e+06 M⁻¹ s⁻¹
Kd [6]: 2 nM
koff [6]: 0.001 s⁻¹
kon [6]: 800000 M⁻¹ s⁻¹
B2: AO-B IgG1 (AO-176 candidate B) (antibody, V domains shown)
VH: EVQLVQSGAEVKKPGESLKISCKGSGYTFTNYWIHWVRQMPGKGLEWMGYTDPRTDYTEYNQKFKDQVTISADKSISTAYLQWSSLKASDTAMYYCARGGRVGLGYWGQGTLVTVSS
VL: B1 VL
notes: Comparator from WO2020/198370; also called AO-B.1; AO-176 B

EC50 [1]: 10.5 mg/L
EC50 [2]: 21.8 mg/L
EC50 [3]: 0.0395 mg/L
EC50 [4]: 0.00578 mg/L
Kd [9]: 6 nM
koff [9]: ~0.01 s⁻¹
kon [9]: 2.3e+06 M⁻¹ s⁻¹
Kd [6]: 3 nM
koff [6]: 0.003 s⁻¹
kon [6]: 1.2e+06 M⁻¹ s⁻¹
B3: AO-C IgG1 (AO-176 candidate C) (antibody, V domains shown)
VH: B1 VH with A16S, N61A, K65Q, D66G, M70I, R72A, T74E, V79A
VL: B1 VL
notes: Comparator from WO2020/198370; also called AO-C.1; SC-AO-C

Kd [10]: 0.003 nM
koff [10]: 4.4e-06 s⁻¹
kon [10]: 1.5e+06 M⁻¹ s⁻¹
B4: CO-1.4 antibody (chimeric CO-1 IgG4) (antibody)
heavy: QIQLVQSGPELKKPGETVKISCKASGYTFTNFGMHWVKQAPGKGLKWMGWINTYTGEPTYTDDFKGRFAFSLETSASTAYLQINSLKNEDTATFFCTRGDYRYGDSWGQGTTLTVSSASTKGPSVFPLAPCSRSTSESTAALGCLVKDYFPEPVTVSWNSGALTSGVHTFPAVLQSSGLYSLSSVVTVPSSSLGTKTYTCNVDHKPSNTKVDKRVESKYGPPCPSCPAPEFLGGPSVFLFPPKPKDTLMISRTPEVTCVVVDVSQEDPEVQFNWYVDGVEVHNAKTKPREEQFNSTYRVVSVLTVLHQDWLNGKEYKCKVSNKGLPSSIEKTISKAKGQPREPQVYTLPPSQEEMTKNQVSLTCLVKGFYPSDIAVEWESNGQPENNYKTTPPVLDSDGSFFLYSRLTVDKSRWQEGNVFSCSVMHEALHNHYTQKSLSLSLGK
light: DVVMTQTPLSLPVSLGDQASISCRSSQSLVHSNGKTYLHWYLQKPGQSPKLLIYRVSNRFSGVPDRFSGSGSGTDFTLKISRIEAEDLGVYFCSQSTHVPFTFGSGTKLEIKRTVAAPSVFIFPPSDEQLKSGTASVVCLLNNFYPREAKVQWKVDNALQSGNSQESVTEQDSKDSTYSLSSTLTLSKADYEKHKVYACEVTHQGLSSPVTKSFNRGEC
notes: Chimeric: mouse variable domains of mCO-1 with human IgG4 constant regions; also called SC-CO-1.4

koff [11]: 4.5e-05 s⁻¹
kon [11]: 6.9e+06 M⁻¹ s⁻¹
B5: CO-1 F(ab')2 antibody (other)
heavy: QIQLVQSGPELKKPGETVKISCKASGYTFTNFGMHWVKQAPGKGLKWMGWINTYTGEPTYTDDFKGRFAFSLETSASTAYLQINSLKNEDTATFFCTRGDYRYGDSWGQGTTLTVSSASTKGPSVFPLAPSSKSTSGGTAALGCLVKDYFPEPVTVSWNSGALTSGVHTFPAVLQSSGLYSLSSVVTVPSSSLGTQTYICNVNHKPSNTKVDKKVEPKSCDKTHTCPPCPAPELLG
light: B4 light
notes: F(ab')2 fragment, divalent for CD47, based on mCO-1; also called CO F(ab')2; CO-F(ab')2

Kd [12]: 0.0153 nM
koff [12]: 7.3e-05 s⁻¹
kon [12]: 4.8e+06 M⁻¹ s⁻¹
B6: CO207 humanized IgG4 anti-CD47 antibody (antibody, V domains shown)
VH: QVQLVQSGSELKKPGASVKVSCKASGYTFTNFGMHWVRQAPGQGLKWMGWINTYTGEPTYTDDFKGRFVFSLDTSVSTAYLQISSLKAEDTAVYYCTRGDYRYGDSWGQGTTVTVSS
VL: DIVMTQTPLSLSVTPGQPASISCRSSQSLVHSNGKTYLHWYLQKPGQSPQLLIYRVSNRFSGVPDRFSGSGSGTDFTLKISRVEAEDVGVYYCSQSTHVPFTFGQGTKLEIK
notes: also called huCO-mAb

Kd [12]: 0.0164 nM
koff [12]: 7.9e-05 s⁻¹
kon [12]: 4.8e+06 M⁻¹ s⁻¹
B7: CO203 humanized IgG4 anti-CD47 antibody (antibody, V domains shown)
VH: B6 VH
VL: B6 VL with S48P
notes: also called huCO-mAb

Kd [12]: 0.023 nM
koff [12]: 0.00012 s⁻¹
kon [12]: 5.3e+06 M⁻¹ s⁻¹
B8: CO202 humanized IgG4 anti-CD47 antibody (antibody, V domains shown)
VH: B6 VH with K46E
VL: B6 VL with S48P
notes: also called huCO-mAb

Kd [12]: 0.0123 nM
koff [12]: 7.2e-05 s⁻¹
kon [12]: 5.8e+06 M⁻¹ s⁻¹
B9: CO212 humanized IgG4 anti-CD47 antibody (antibody, V domains shown)
VH: B6 VH with Q43K
VL: B6 VL with Q50K
notes: also called huCO-mAb

EC50 (read off the curve) [13]: ~0.08 mg/L
Kd [12]: 0.056 nM
koff [12]: 0.00046 s⁻¹
kon [12]: 8.2e+06 M⁻¹ s⁻¹
B10: CO205 humanized IgG4 anti-CD47 antibody (antibody, V domains shown)
VH: B6 VH with K46E, T97A
VL: B6 VL
notes: also called huCO-mAb

Kd [12]: 0.0386 nM
koff [12]: 0.00032 s⁻¹
kon [12]: 8.2e+06 M⁻¹ s⁻¹
B11: CO209 humanized IgG4 anti-CD47 antibody (antibody, V domains shown)
VH: B6 VH with K46E, T97A
VL: B6 VL with Q50K
notes: also called huCO-mAb

Kd [12]: 0.016 nM
koff [12]: 8.1e-05 s⁻¹
kon [12]: 5e+06 M⁻¹ s⁻¹
B12: CO208 humanized IgG4 anti-CD47 antibody (antibody, V domains shown)
VH: B6 VH with Q43K
VL: B6 VL
notes: also called huCO-mAb

Kd [12]: 0.017 nM
koff [12]: 8.3e-05 s⁻¹
kon [12]: 4.9e+06 M⁻¹ s⁻¹
B13: CO210 humanized IgG4 anti-CD47 antibody (antibody, V domains shown)
VH: B6 VH with K46E
VL: B6 VL with Q50K
notes: also called huCO-mAb

Kd [12]: 0.0205 nM
koff [12]: 0.0001 s⁻¹
kon [12]: 5.1e+06 M⁻¹ s⁻¹
B14: CO206 humanized IgG4 anti-CD47 antibody (antibody, V domains shown)
VH: B6 VH with K46E
VL: B6 VL
notes: also called huCO-mAb

EC50 (read off the curve) [13]: ~0.07 mg/L
Kd [12]: 0.0499 nM
koff [12]: 0.00043 s⁻¹
kon [12]: 8.7e+06 M⁻¹ s⁻¹
B15: CO201 humanized IgG4 anti-CD47 antibody (antibody, V domains shown)
VH: B6 VH with K46E, T97A
VL: B6 VL with S48P
notes: also called huCO-mAb

Kd [12]: 0.0135 nM
koff [12]: 6.8e-05 s⁻¹
kon [12]: 5.1e+06 M⁻¹ s⁻¹
B16: CO211 humanized IgG4 anti-CD47 antibody (antibody, V domains shown)
VH: B6 VH
VL: B6 VL with Q50K
notes: also called huCO-mAb

Kd [12]: 0.032 nM
koff [12]: 0.00034 s⁻¹
kon [12]: 1.1e+07 M⁻¹ s⁻¹
B17: CO213 humanized IgG4 anti-CD47 antibody (antibody, V domains shown)
VH: B6 VH with T97A
VL: B6 VL with S48P
notes: also called huCO-mAb

Kd [12]: 0.0149 nM
koff [12]: 8.5e-05 s⁻¹
kon [12]: 5.7e+06 M⁻¹ s⁻¹
B18: CO204 humanized IgG4 anti-CD47 antibody (antibody, V domains shown)
VH: B6 VH with Q43K
VL: B6 VL with S48P
notes: also called huCO-mAb
